Data published in patent publication US20060257938A1, “Method of screening for drugs that block ligand binding to a lipid binding protein” (priority 2005, published 2006).
Positions count from the first letter of the chain named. Names and notes keep the numbering of the source.

B1: L72M: FABP probe clone, substitution L72M vs SEQ ID NO: 2 (protein, listed as Rattus norvegicus)
chain: AFDGTWKVDRNENYEKFMEKMGINVVKRKLGAHDNLKLTITQEGNKFTVKESSNFRNIDVVFELGVDFAYSMADGTELTGTWTMEGNKLVGKFKRVDNGKELIAVREISGNELIQTYTYEGVEAKRIFKKE
modifications: PEPTIDE (1)...(131) wild-type rat intestinal fatty acid binding protein
B2: A73F, L72A: FABP probe clone, substitutions A73F, L72A vs SEQ ID NO: 2 (protein, listed as Rattus norvegicus)
chain: B1 chain with M72A, A73F
modifications: PEPTIDE (1)...(131) wild-type rat intestinal fatty acid binding protein
B3: L1P14A9: FABP probe, substitutions Y14L L72G Y117I vs SEQ ID NO: 2 (protein, listed as Rattus norvegicus)
chain: B1 chain with Y14L, M72G, Y117I
modifications: PEPTIDE (1)...(131) wild-type rat intestinal fatty acid binding protein
B4: L1P7B11: FABP probe, substitutions Y14I L38I L72V vs SEQ ID NO: 2 (protein, listed as Rattus norvegicus)
chain: B1 chain with Y14I, L38I, M72V
modifications: PEPTIDE (1)...(131) wild-type rat intestinal fatty acid binding protein
B5: L1P1F7: FABP probe, substitutions Y14L L38M Y117F vs SEQ ID NO: 2 (protein, listed as Rattus norvegicus)
chain: B1 chain with Y14L, L38M, M72L, Y117F
modifications: PEPTIDE (1)...(131) wild-type rat intestinal fatty acid binding protein
B6: L1P11F12: FABP probe, substitutions Y14L L38I vs SEQ ID NO: 2 (protein, listed as Rattus norvegicus)
chain: B1 chain with Y14L, L38I, M72L
modifications: PEPTIDE (1)...(131) wild-type rat intestinal fatty acid binding protein
B7: L1P9G10: FABP probe, substitutions L38I L72G vs SEQ ID NO: 2 (protein, listed as Rattus norvegicus)
chain: B1 chain with L38I, M72G
modifications: PEPTIDE (1)...(131) wild-type rat intestinal fatty acid binding protein
B8: L1P2F7: FABP probe, substitutions Y14I L72G Y117V vs SEQ ID NO: 2 (protein, listed as Rattus norvegicus)
chain: B1 chain with Y14I, M72G, Y117V
modifications: PEPTIDE (1)...(131) wild-type rat intestinal fatty acid binding protein
B9: L1P5A10: FABP probe, substitution Y117A vs SEQ ID NO: 2 (protein, listed as Rattus norvegicus)
chain: B1 chain with M72L, Y117A
modifications: PEPTIDE (1)...(131) wild-type rat intestinal fatty acid binding protein
B10: L1P17A8: FABP probe, substitutions L38M L72G Y117F vs SEQ ID NO: 2 (protein, listed as Rattus norvegicus)
chain: B1 chain with L38M, M72G, Y117F
modifications: PEPTIDE (1)...(131) wild-type rat intestinal fatty acid binding protein
B11: L1P16G10: FABP probe, substitutions Y14W L72M Y117A vs SEQ ID NO: 2 (protein, listed as Rattus norvegicus)
chain: B1 chain with Y14W, Y117A
modifications: PEPTIDE (1)...(131) wild-type rat intestinal fatty acid binding protein
B12: L1P12F12: FABP probe, substitutions Y14L L72G Y117V vs SEQ ID NO: 2 (protein, listed as Rattus norvegicus)
chain: B1 chain with Y14L, M72G, Y117V
modifications: PEPTIDE (1)...(131) wild-type rat intestinal fatty acid binding protein
B13: L1P3D6: FABP probe, substitution Y14L vs SEQ ID NO: 2 (protein, listed as Rattus norvegicus)
chain: B1 chain with Y14L, M72L
modifications: PEPTIDE (1)...(131) wild-type rat intestinal fatty acid binding protein
B14: L1P8D4: FABP probe, substitutions Y14M L72M Y117A vs SEQ ID NO: 2 (protein, listed as Rattus norvegicus)
chain: B1 chain with Y14M, Y117A
modifications: PEPTIDE (1)...(131) wild-type rat intestinal fatty acid binding protein
B15: L1P1C3: FABP probe, substitutions Y14M L72W vs SEQ ID NO: 2 (protein, listed as Rattus norvegicus)
chain: B1 chain with Y14M, M72W
modifications: PEPTIDE (1)...(131) wild-type rat intestinal fatty acid binding protein
B16: L1P12E11: FABP probe, substitutions Y14L L72W vs SEQ ID NO: 2 (protein, listed as Rattus norvegicus)
chain: B1 chain with Y14L, M72W
modifications: PEPTIDE (1)...(131) wild-type rat intestinal fatty acid binding protein
B17: L1P7H4: FABP probe, substitutions Y14I L38M L72W vs SEQ ID NO: 2 (protein, listed as Rattus norvegicus)
chain: B1 chain with Y14I, L38M, M72W
modifications: PEPTIDE (1)...(131) wild-type rat intestinal fatty acid binding protein
B18: L1P8H2: FABP probe, substitutions Y14M L38M L72W vs SEQ ID NO: 2 (protein, listed as Rattus norvegicus)
chain: B1 chain with Y14M, L38M, M72W
modifications: PEPTIDE (1)...(131) wild-type rat intestinal fatty acid binding protein
B19: L1P12G10: FABP probe, substitution Y14I vs SEQ ID NO: 2 (protein, listed as Rattus norvegicus)
chain: B1 chain with Y14I, M72L
modifications: PEPTIDE (1)...(131) wild-type rat intestinal fatty acid binding protein

Assay: Probe fluorescence ratio response to arachidonic acid relative to ADIFAB2
Type: binding
Settings: Table 3; Arachidonic acid
Outline: (§1)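 Each fatty acid's response was expressed relative to ADIFAB2, the rI-FABP-L72A probe, as ΔR/ΔRreference. ΔR is the change in the background-corrected two-wavelength intensity ratio R=Fλ1/Fλ2 from its analyte-free baseline R0. Emission was read near about 420-480 nm for unbound and about 495-580 nm for FFA-bound probe.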

In order of falling “DR/DRAD2 AA” value:
1. B1  1.31
2. B2  1.21

Same assay, conditions: Table 4; Arachidonic acid

In order of rising “ΔR/DRAΔ2 AA” value:
1. B18  −1.3
2. B17  −1.0
3. B15  −0.9
4. B16  −0.5
5. B4  0.7
6. B3  0.8
7. B19  0.8
8. B5  0.9
9. B8  0.9
10. B11  0.9
11. B12  0.9
12. B13  0.9
13. B6  1.0
14. B7  1.0
15. B10  1.3
16. B9  1.5
17. B14  1.6

Assay: Probe fluorescence ratio response to linolenic acid relative to ADIFAB2
Type: binding
Settings: Table 3
Outline: as §1

In order of rising “DR/DRAD2 LNA” value:
1. B1  1.35
2. B2  1.86

Same assay, conditions: Table 4

In order of rising “ΔR/DRAΔ2 LNA” value:
1. B18  −1.3
2. B17  −1.1
3. B15  −1.0
4. B16  −0.7
5. B8  0.5
6. B12  0.5
7. B7  0.7
8. B9  0.7
9. B10  0.7
10. B3  0.8
11. B4  0.9
12. B13  0.9
13. B5  1.0
14. B19  1.0
15. B6  1.2
16. B11  1.3
17. B14  2.0

Assay: Probe fluorescence ratio response to linoleic acid relative to ADIFAB2
Type: binding
Settings: Table 3
Outline: as §1

In order of falling “DR/DRAD2 LA” value:
1. B1  1.46
2. B2  1.23

Same assay, conditions: Table 4

In order of rising “ΔR/DRAΔ2 LA” value:
1. B18  −1.5
2. B17  −1.3
3. B15  −1.1
4. B16  −0.7
5. B12  0.5
6. B8  0.6
7. B3  0.8
8. B7  0.8
9. B10  0.8
10. B13  0.8
11. B4  0.9
12. B5  0.9
13. B19  0.9
14. B6  1.1
15. B11  1.1
16. B9  1.2
17. B14  2.0

Assay: Probe fluorescence ratio response to oleic acid relative to ADIFAB2
Type: binding
Settings: Table 3
Outline: as §1

In order of falling “DR/DRAD2 OA” value:
1. B1  1.49
2. B2  0.73

Same assay, conditions: Table 4

In order of rising “ΔR/DRAΔ2 OA” value:
1. B18  −1.7
2. B17  −1.4
3. B15  −1.3
4. B16  −1.0
5. B8  0.3
6. B12  0.3
7. B3  0.4
8. B4  0.4
9. B5  0.5
10. B13  0.5
11. B19  0.5
12. B6  0.7
13. B10  0.7
14. B11  0.7
15. B7  0.9
16. B9  1.1
17. B14  1.1

Assay: Probe fluorescence ratio response to palmitic acid relative to ADIFAB2
Type: binding
Settings: Table 3
Outline: as §1

In order of falling “DR/DRAD2 PA” value:
1. B1  1.32
2. B2  1.13

Same assay, conditions: Table 4

In order of rising “ΔR/DRAΔ2 PA” value:
1. B17  −0.6
2. B18  −0.6
3. B15  −0.4
4. B16  −0.1
5. B8  0.1
6. B12  0.1
7. B3  0.2
8. B7  0.4
9. B9  0.4
10. B10  0.4
11. B5  0.5
12. B13  0.5
13. B6  0.7
14. B4  0.8
15. B11  0.8
16. B19  0.8
17. B14  0.9
